The results in this text go back to article PMC11749594, “Tracing TMEM106B fibril deposition in aging and Parkinson’s disease with dementia brains” (Life Medicine, 2024).

This data set deals with the molecule itself. Description: cryo-EM structure; fibrils extracted from the frontal cortex of case 1 of PDD, pretreated with pronase for 30 min; helical reconstruction at 3.5 Å.

B1: TMEM106B fibril (Type 1) extracted from the frontal cortex of case 1 of PDD (domain or fragment, human (endogenous in brain tissue), UniProt Q9NUM4 120-254, looked up)
chain: SIDVKYIGVKSAYVSYDVQKRTIYLNITNTLNITNNNYYSVEVENITAQVQFSKTVIGKARLNNITIIGPLDMKQIDYTVPTVIAEEMSYMYDFCTLISIKVHNIVLMMQVTVTTTYFGHSEQISQERYQYVDCG
modifications: four potentially glycosylated Asn residues
notes: Transmembrane protein 106B (TMEM106B), human, fibril core of residues 120-254 (luminal domain); Amyloid fibril with many stacked copies of the chain; the atomic model was built as three layers; Residues 120-254 are the ordered core seen by cryo-EM; also called Transmembrane protein 106B fibril; brain-extracted TMEM106B fibril; source: extracted from postmortem human brain (frontal lobe, case 1 of …)
As for B1, the binding result is given as “binds”.
